Reference: IntAct's records for PubMed 7759517

B1: Dual specificity mitogen-activated protein kinase kinase 5 (Homo sapiens), Q13163 (parent)
chain: MLWLALGPFPAMENQVLVIRIKIPNSGAVDWTVHSGPQLLFRDVLDVIGQVLPEATTTAFEYEDEDGDRITVRSDEEMKAMLSYYYSTVMEQQVNGQLIEPLQIFPRACKPPGERNIHGLKVNTRAGPSQHSSPAVSDSLPSNSLKKSSAELKKILANGQMNEQDIRYRDTLGHGNGGTVYKAYHVPSGKILAVKVILLDITLELQKQIMSELEILYKCDSSYIIGFYGAFFVENRISICTEFMDGGSLDVYRKMPEHVLGRIAVAVVKGLTYLWSLKILHRDVKPSNMLVNTRGQVKLCDFGVSTQLVNSIAKTYVGTNAYMAPERISGEQYGIHSDVWSLGISFMELALGRFPYPQIQKNQGSLMPLQLLQCIVDEDSPVLPVGEFSEPFVHFITQCMRKQPKERPAPEELMGHPFIVQFNDGNAAVVSMWVCRALEERRSQQGPP

Variants of: B1
Conditions: with mk07_human MAPK7, Q13164
Chain of mk07_human MAPK7, Q13164 (Q13164 whole entry, looked up): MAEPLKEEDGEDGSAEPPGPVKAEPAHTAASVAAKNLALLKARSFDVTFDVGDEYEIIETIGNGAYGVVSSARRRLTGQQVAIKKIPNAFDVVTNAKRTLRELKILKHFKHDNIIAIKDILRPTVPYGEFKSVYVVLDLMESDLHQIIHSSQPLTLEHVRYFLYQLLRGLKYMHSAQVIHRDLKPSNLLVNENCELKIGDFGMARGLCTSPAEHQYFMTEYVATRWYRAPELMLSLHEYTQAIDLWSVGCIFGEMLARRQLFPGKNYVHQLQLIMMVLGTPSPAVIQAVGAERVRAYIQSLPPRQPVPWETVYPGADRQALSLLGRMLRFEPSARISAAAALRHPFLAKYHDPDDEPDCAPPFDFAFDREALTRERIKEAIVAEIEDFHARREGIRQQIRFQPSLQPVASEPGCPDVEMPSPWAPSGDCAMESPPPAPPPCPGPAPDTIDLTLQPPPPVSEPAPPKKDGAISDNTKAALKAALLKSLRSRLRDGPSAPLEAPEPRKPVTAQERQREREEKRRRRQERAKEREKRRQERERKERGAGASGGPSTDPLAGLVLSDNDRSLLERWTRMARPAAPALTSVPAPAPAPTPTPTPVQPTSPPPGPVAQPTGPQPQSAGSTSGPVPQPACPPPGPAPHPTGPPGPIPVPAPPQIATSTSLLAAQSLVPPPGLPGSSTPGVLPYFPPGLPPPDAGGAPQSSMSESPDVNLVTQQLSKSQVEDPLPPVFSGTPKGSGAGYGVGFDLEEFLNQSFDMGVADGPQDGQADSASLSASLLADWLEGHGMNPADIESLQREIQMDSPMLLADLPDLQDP

| effect of a mutation on the interaction | Variant |
| --- | --- |
| increasing interaction | K195M |

Variants of: B1
Conditions: with mk07_human MAPK7, Q13164
Remark: another data set of the same source

| effect of a mutation on the interaction | Variant |
| --- | --- |
| increasing interaction | S311A;T315A |
